One assay has as its target T1, ARA54-ARA54 interactions (Homo sapiens, UniProt Q9UBS8).
T1 construct: fl-ARA54, full-length ARA54; expressed in transfected cells; host or cells: DU145
T1 sequence (Q9UBS8 1-474): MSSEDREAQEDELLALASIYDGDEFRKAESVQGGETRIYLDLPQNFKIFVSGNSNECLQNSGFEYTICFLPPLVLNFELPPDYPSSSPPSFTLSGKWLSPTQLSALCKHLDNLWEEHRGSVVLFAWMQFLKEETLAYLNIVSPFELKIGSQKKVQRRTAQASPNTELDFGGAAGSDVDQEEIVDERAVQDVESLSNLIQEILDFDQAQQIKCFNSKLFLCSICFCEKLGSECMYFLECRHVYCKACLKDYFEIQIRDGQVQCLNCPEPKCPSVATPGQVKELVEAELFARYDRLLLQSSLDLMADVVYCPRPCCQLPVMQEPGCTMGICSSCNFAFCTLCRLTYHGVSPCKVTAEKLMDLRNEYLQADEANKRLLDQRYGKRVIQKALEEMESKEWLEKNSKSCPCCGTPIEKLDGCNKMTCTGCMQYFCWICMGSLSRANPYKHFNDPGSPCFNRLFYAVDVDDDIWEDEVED
Description: Mammalian two-hybrid assay of ARA54-ARA54 interaction in DU145 cells. Type of assay: cell-based. The method, then: 15. […] DU145 cells were transfected with 2.5 μg of GAL4-hybrid expression plasmid (pGAL0-AR (A) or pCMX-GAL4 DBD-fl-ARA54 (B)), 2.5 μg of VP16-hybrid expression plasmid (pCMX-VP16-fl-ARA54), and 2.5 μg of pG5-CAT, with or without 2.5 μg of pSG5-C′-ARA54 (C′) or pSG5-mt-ARA54 (mt). pCMX-VP16-C′-ARA54 and pCMX-VP16-mt-ARA54 were also cotransfected to test the interactions with AR (A) and fl-ARA54 (B). The total amount of DNA was adjusted to 11.0 μg with pSG5 and/or pVP16 for each transfection. The CAT activity was determined and each CAT activity is presented relative to that of lane 4 in each panel (black bars; set as 100%). Values represent the mean±SD of at least three determinations.
397. DU145 cells were transiently cotransfected with a GAL4-hybrid expression plasmid, a VP16-hybrid expression plasmid, the reporter plasmid pG5-CAT, and the pCMV-O-gal internal control plasmid. Transfections and CAT assays were performed as described above.

In the next assay the target is T2, PR (Homo sapiens, UniProt P06401).
T2 construct: expressed in transfected cells; host or cells: DU145, PC-3
T2 sequence (P06401 1-933): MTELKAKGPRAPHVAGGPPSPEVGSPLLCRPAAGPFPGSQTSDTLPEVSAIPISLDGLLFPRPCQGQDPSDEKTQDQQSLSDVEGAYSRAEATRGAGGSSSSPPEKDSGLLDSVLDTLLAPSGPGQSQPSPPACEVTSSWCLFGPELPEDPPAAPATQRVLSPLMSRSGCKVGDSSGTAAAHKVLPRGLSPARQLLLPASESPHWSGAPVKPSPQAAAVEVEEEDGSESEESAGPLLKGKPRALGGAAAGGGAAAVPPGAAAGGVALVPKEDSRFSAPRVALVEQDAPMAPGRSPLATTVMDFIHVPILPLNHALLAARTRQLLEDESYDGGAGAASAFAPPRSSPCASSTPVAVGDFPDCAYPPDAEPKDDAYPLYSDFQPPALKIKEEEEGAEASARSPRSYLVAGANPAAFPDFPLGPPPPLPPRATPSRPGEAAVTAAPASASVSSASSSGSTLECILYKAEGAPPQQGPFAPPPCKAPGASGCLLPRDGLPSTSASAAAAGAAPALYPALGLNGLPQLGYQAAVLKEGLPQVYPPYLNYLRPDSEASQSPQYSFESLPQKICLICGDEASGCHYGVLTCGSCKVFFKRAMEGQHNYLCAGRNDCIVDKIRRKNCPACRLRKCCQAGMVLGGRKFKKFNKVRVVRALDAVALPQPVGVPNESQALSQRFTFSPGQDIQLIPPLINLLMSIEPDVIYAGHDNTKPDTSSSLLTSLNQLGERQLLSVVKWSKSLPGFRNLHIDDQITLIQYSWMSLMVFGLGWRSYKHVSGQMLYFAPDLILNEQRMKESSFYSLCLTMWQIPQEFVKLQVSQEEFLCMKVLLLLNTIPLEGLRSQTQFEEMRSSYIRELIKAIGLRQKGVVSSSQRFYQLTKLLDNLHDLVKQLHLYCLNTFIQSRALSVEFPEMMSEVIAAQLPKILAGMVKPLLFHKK
Briefly: PR transcription activity, MMTV-CAT reporter (Example 1). The class given is cell-based. The note with it: DU145 cells. The method, then: 366. Human prostate cancer DU145 or PC3 cells, or human lung carcinoma cells NCI H1299 were grown in Dulbecco's minimal essential medium (DMEM) containing penicillin (25 U/ml), streptomycin (25˜g/ml), and 5% fetal calf serum (FCS). One hour before transfection, the medium was changed to DMEM with 5% charcoal-stripped FCS. Phenol red-free and serum-free media were used on the experiments employing E2 or TGF-β, respectively. A β-galactosidase expression plasmid, pCMV-β-gal, was used as an internal control for transfection efficiency.
367. Cells were transfected using the calcium phosphate technique (Yeh, et al. Molec. Endocrinol. 8:77-88, 1994). The medium was changed 24 hr posttransfection and the cells treated with either steroid hormones or hydroxyflutamide, and cultured for an additional 24 hr. Cells were harvested and assayed for CAT activity after the cell lysates were normalized by using β-galactosidaseas an internal control. Chloramphenicol acetyltransferase (CA) activity was visualized by PhosphorImager (Molecular Dynamics) and quantitated by ImageQuant software (Molecular Dynamics).

B1: C′-ARA54: C-terminal region (amino acids 361-474) of ARA54 (protein)
chain: RNEYLQADEANKRLLDQRYGKRVIQKALEEMESKEWLEKNSKSCPCCGTPIEKLDGCNKMTCTGCMQYFCWICMGSLSRANPYKHFNDPGSPCFNRLFYAVDVDDDIWEDEVED
modifications: Homo sapien
notes: C-terminal region (amino acids 361-474) of ARA54
Regarding B1, the “CAT activity of GAL4-fl-ARA54 / VP16-fl-ARA54 interaction” value with ARA54-ARA54 interactions is recorded as “returned to the basal levels”.

B2: ARA54: 54 kDa protein that interacts with AR in an androgen-dependent manner; AR coactivator (protein)
chain: T1 sequence (Q9UBS8 1-474)
With B2, the “enhancement of the transcription activity of PR” value with PR was 3-5 fold.

Source of the values: patent US20060270591A1, “Androgen receptor coregulators” (priority 2002, published 2006).
